This passage reports IC50 results from US20140087995A1 (published 2014).

Numbered stars: 1 amine (or outer) side, 2 acyl side, 3 side chain; on linkers, the order of the positions; unused ones are H or OH. Bridge positions count the residues as written; N and C are the ends. Square brackets hold non-standard residues; d marks the D form. Side chains are listed from the residue outwards. Ends that are not written are not given here. * marks the point of attachment. C20 diacid = O=C(O)CCCCCCCCCCCCCCCCCCC(=O)*; γGlu = O=C(O)[C@H](CCC(=O)[*:2])N[*:1]

For this assay, the target named is T1, human amylin receptor (Amylin 3(a) receptor: human calcitonin receptor co-expressed with RAMP-3) (human, UniProt P30988 25-474; O60896 24-148, limits assumed).
T1 construct: whole, on cells; Used as cell membranes prepared from the Amylin 3(a)/CRE-luc BHK cells (Assay V); the complex is called the human amylin receptor; also called hAmylin-R; hAmylinR
T1 sequence (looked up) 1: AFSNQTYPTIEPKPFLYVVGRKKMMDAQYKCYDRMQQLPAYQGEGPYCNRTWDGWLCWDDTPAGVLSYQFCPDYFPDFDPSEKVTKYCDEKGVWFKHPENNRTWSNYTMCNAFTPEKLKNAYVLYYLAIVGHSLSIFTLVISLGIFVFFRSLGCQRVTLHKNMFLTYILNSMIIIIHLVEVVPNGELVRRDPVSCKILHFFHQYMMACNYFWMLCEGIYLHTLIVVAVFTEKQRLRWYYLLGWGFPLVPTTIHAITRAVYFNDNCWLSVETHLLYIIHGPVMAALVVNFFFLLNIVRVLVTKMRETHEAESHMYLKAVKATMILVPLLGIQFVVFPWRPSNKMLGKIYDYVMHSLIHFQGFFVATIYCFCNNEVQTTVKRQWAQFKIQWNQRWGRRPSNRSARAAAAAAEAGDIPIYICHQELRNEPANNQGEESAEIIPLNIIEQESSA
T1 sequence (looked up) 2: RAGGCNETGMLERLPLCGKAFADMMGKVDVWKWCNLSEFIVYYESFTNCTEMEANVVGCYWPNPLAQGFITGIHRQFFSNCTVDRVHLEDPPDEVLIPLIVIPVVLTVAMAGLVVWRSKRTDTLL
Briefly: SPA competition binding, displacement of 125I-rat amylin from membranes of BHK cells with human calcitonin receptor + RAMP-3 (Assay V). A digest of the protocol:
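Membranes from BHK Amylin 3(a)/CRE-luc cells (35 ng/μL final) were mixed with SPA beads and test compounds in 50 mM Hepes pH 7.4 with 1 mM CaCl2, 5 mM MgCl₂, 0.1% OA and 0.02% Tween20. Incubation ran 120 min at 25° C with shaking; IC₅₀ came from one-site competition fitting.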

B1: N^ε1-[(4S)-4-carboxy-4-(19-carboxynonadecanoylamino)butanoyl]-[His14,Arg17,Pro21,Pro27,Pro31,Pro34]-h-amylin (peptide)
peptide: K([γGlu-C20 diacid])CNTATCATQRLAHFLRHSSPNFGAIPSSTPVGPNTY-NH2
modifications: disulfide 2-7; N-terminus assumed
SMILES: CC[C@H](C)[C@H](NC(=O)[C@H](C)NC(=O)CNC(=O)[C@H](Cc1ccccc1)NC(=O)[C@H](CC(N)=O)NC(=O)[C@@H]1CCCN1C(=O)[C@H](CO)NC(=O)[C@H](CO)NC(=O)[C@H](Cc1c[nH]cn1)NC(=O)[C@H](CCCNC(=N)N)NC(=O)[C@H](CC(C)C)NC(=O)[C@H](Cc1ccccc1)NC(=O)[C@H](Cc1c[nH]cn1)NC(=O)[C@H](C)NC(=O)[C@H](CC(C)C)NC(=O)[C@H](CCCNC(=N)N)NC(=O)[C@H](CCC(N)=O)NC(=O)[C@@H](NC(=O)[C@H](C)NC(=O)[C@@H]1CSSC[C@H](NC(=O)[C@@H](N)CCCCNC(=O)CC[C@H](NC(=O)CCCCCCCCCCCCCCCCCCC(=O)O)C(=O)O)C(=O)N[C@@H](CC(N)=O)C(=O)N[C@@H]([C@@H](C)O)C(=O)N[C@@H](C)C(=O)N[C@@H]([C@@H](C)O)C(=O)N1)[C@@H](C)O)C(=O)N1CCC[C@H]1C(=O)N[C@@H](CO)C(=O)N[C@@H](CO)C(=O)N[C@H](C(=O)N1CCC[C@H]1C(=O)N[C@H](C(=O)NCC(=O)N1CCC[C@H]1C(=O)N[C@@H](CC(N)=O)C(=O)N[C@H](C(=O)N[C@@H](Cc1ccc(O)cc1)C(N)=O)[C@@H](C)O)C(C)C)[C@@H](C)O
notes: modifications are with respect to human amylin
As for B1, the 50% inhibitory concentration (IC50) amounted to 0.082 nM.

B2: N^ε1-[(4S)-4-carboxy-4-[[(4S)-4-carboxy-4-(19-carboxynonadecanoylamino)butanoyl]amino]butanoyl]-[Asp14,Arg17,Pro21,Pro27,Pro34,Glu35]-h-amylin (peptide)
peptide: K([γGlu-γGlu-C20 diacid])CNTATCATQRLADFLRHSSPNFGAIPSSTNVGPETY-NH2
modifications: disulfide 2-7
notes: as for B1
As to B2, the 50% inhibitory concentration (IC50) is 0.172 nM.

B3: N^ε1-[(4S)-4-carboxy-4-[[(4S)-4-carboxy-4-(19-carboxynonadecanoylamino)butanoyl]amino]butanoyl]-[D-Asp14,Arg17,Pro21,Pro27,Arg35]-h-amylin (peptide)
peptide: K([γGlu-γGlu-C20 diacid])CNTATCATQRLA[dD]FLRHSSPNFGAIPSSTNVGSRTY-NH2
modifications: disulfide 2-7; N-terminus assumed
SMILES: CC[C@H](C)[C@H](NC(=O)[C@H](C)NC(=O)CNC(=O)[C@H](Cc1ccccc1)NC(=O)[C@H](CC(N)=O)NC(=O)[C@@H]1CCCN1C(=O)[C@H](CO)NC(=O)[C@H](CO)NC(=O)[C@H](Cc1c[nH]cn1)NC(=O)[C@H](CCCNC(=N)N)NC(=O)[C@H](CC(C)C)NC(=O)[C@H](Cc1ccccc1)NC(=O)[C@@H](CC(=O)O)NC(=O)[C@H](C)NC(=O)[C@H](CC(C)C)NC(=O)[C@H](CCCNC(=N)N)NC(=O)[C@H](CCC(N)=O)NC(=O)[C@@H](NC(=O)[C@H](C)NC(=O)[C@@H]1CSSC[C@H](NC(=O)[C@@H](N)CCCCNC(=O)CC[C@H](NC(=O)CC[C@H](NC(=O)CCCCCCCCCCCCCCCCCCC(=O)O)C(=O)O)C(=O)O)C(=O)N[C@@H](CC(N)=O)C(=O)N[C@@H]([C@@H](C)O)C(=O)N[C@@H](C)C(=O)N[C@@H]([C@@H](C)O)C(=O)N1)[C@@H](C)O)C(=O)N1CCC[C@H]1C(=O)N[C@@H](CO)C(=O)N[C@@H](CO)C(=O)N[C@H](C(=O)N[C@@H](CC(N)=O)C(=O)N[C@H](C(=O)NCC(=O)N[C@@H](CO)C(=O)N[C@@H](CCCNC(=N)N)C(=O)N[C@H](C(=O)N[C@@H](Cc1ccc(O)cc1)C(N)=O)[C@@H](C)O)C(C)C)[C@@H](C)O
As to B3, the 50% inhibitory concentration (IC50) stood at 0.365 nM.

B4: N^ε1-[(4S)-4-carboxy-4-[[(4S)-4-carboxy-4-(19-carboxynonadecanoylamino)butanoyl]amino]butanoyl]-[Glu14,Arg17,Pro21,Pro27,Arg34,Glu35]-h-amylin (peptide)
peptide: K([γGlu-γGlu-C20 diacid])CNTATCATQRLAEFLRHSSPNFGAIPSSTNVGRETY-NH2
modifications: disulfide 2-7; N-terminus assumed
SMILES: CC[C@H](C)[C@H](NC(=O)[C@H](C)NC(=O)CNC(=O)[C@H](Cc1ccccc1)NC(=O)[C@H](CC(N)=O)NC(=O)[C@@H]1CCCN1C(=O)[C@H](CO)NC(=O)[C@H](CO)NC(=O)[C@H](Cc1c[nH]cn1)NC(=O)[C@H](CCCNC(=N)N)NC(=O)[C@H](CC(C)C)NC(=O)[C@H](Cc1ccccc1)NC(=O)[C@H](CCC(=O)O)NC(=O)[C@H](C)NC(=O)[C@H](CC(C)C)NC(=O)[C@H](CCCNC(=N)N)NC(=O)[C@H](CCC(N)=O)NC(=O)[C@@H](NC(=O)[C@H](C)NC(=O)[C@@H]1CSSC[C@H](NC(=O)[C@@H](N)CCCCNC(=O)CC[C@H](NC(=O)CC[C@H](NC(=O)CCCCCCCCCCCCCCCCCCC(=O)O)C(=O)O)C(=O)O)C(=O)N[C@@H](CC(N)=O)C(=O)N[C@@H]([C@@H](C)O)C(=O)N[C@@H](C)C(=O)N[C@@H]([C@@H](C)O)C(=O)N1)[C@@H](C)O)C(=O)N1CCC[C@H]1C(=O)N[C@@H](CO)C(=O)N[C@@H](CO)C(=O)N[C@H](C(=O)N[C@@H](CC(N)=O)C(=O)N[C@H](C(=O)NCC(=O)N[C@@H](CCCNC(=N)N)C(=O)N[C@@H](CCC(=O)O)C(=O)N[C@H](C(=O)N[C@@H](Cc1ccc(O)cc1)C(N)=O)[C@@H](C)O)C(C)C)[C@@H](C)O
notes: as for B1
On to B4, for which the half-inhibitory concentration (IC50) amounted to 0.957 nM.

B5: N^ε1-[(4S)-4-carboxy-4-[[(4S)-4-carboxy-4-(19-carboxynonadecanoylamino)butanoyl]amino]butanoyl]-[Asp14,Arg17,Pro21,Pro27,Pro34,Arg35]-h-amylin (peptide)
peptide: K([γGlu-γGlu-C20 diacid])CNTATCATQRLADFLRHSSPNFGAIPSSTNVGPRTY-NH2
modifications: disulfide 2-7
notes: modifications are with respect to human amylin; also called compound 130
As for B5, the half-inhibitory concentration (IC50) worked out at 0.453 nM.

B6: N^ε1-[(4S)-4-carboxy-4-[[(4S)-4-carboxy-4-(19-carboxynonadecanoylamino)butanoyl]amino]butanoyl]-[Arg17,Pro21,Pro27,Pro31,Pro34,Arg35]-h-amylin (peptide)
peptide: K([γGlu-γGlu-C20 diacid])CNTATCATQRLANFLRHSSPNFGAIPSSTPVGPRTY-NH2
modifications: disulfide 2-7; N-terminus assumed
SMILES: CC[C@H](C)[C@H](NC(=O)[C@H](C)NC(=O)CNC(=O)[C@H](Cc1ccccc1)NC(=O)[C@H](CC(N)=O)NC(=O)[C@@H]1CCCN1C(=O)[C@H](CO)NC(=O)[C@H](CO)NC(=O)[C@H](Cc1c[nH]cn1)NC(=O)[C@H](CCCNC(=N)N)NC(=O)[C@H](CC(C)C)NC(=O)[C@H](Cc1ccccc1)NC(=O)[C@H](CC(N)=O)NC(=O)[C@H](C)NC(=O)[C@H](CC(C)C)NC(=O)[C@H](CCCNC(=N)N)NC(=O)[C@H](CCC(N)=O)NC(=O)[C@@H](NC(=O)[C@H](C)NC(=O)[C@@H]1CSSC[C@H](NC(=O)[C@@H](N)CCCCNC(=O)CC[C@H](NC(=O)CC[C@H](NC(=O)CCCCCCCCCCCCCCCCCCC(=O)O)C(=O)O)C(=O)O)C(=O)N[C@@H](CC(N)=O)C(=O)N[C@@H]([C@@H](C)O)C(=O)N[C@@H](C)C(=O)N[C@@H]([C@@H](C)O)C(=O)N1)[C@@H](C)O)C(=O)N1CCC[C@H]1C(=O)N[C@@H](CO)C(=O)N[C@@H](CO)C(=O)N[C@H](C(=O)N1CCC[C@H]1C(=O)N[C@H](C(=O)NCC(=O)N1CCC[C@H]1C(=O)N[C@@H](CCCNC(=N)N)C(=O)N[C@H](C(=O)N[C@@H](Cc1ccc(O)cc1)C(N)=O)[C@@H](C)O)C(C)C)[C@@H](C)O
notes: as for B1
Turning to B6, the 50% inhibitory concentration (IC50) worked out at 0.88 nM.

B7: N^ε1-[(4S)-4-carboxy-4-[[(4S)-4-carboxy-4-(19-carboxynonadecanoylamino)butanoyl]amino]butanoyl]-[Glu14,Arg17,Pro21,Pro27,His34,Glu35]-h-amylin (peptide)
peptide: K([γGlu-γGlu-C20 diacid])CNTATCATQRLAEFLRHSSPNFGAIPSSTNVGHETY-NH2
modifications: disulfide 2-7; N-terminus assumed
SMILES: CC[C@H](C)[C@H](NC(=O)[C@H](C)NC(=O)CNC(=O)[C@H](Cc1ccccc1)NC(=O)[C@H](CC(N)=O)NC(=O)[C@@H]1CCCN1C(=O)[C@H](CO)NC(=O)[C@H](CO)NC(=O)[C@H](Cc1c[nH]cn1)NC(=O)[C@H](CCCNC(=N)N)NC(=O)[C@H](CC(C)C)NC(=O)[C@H](Cc1ccccc1)NC(=O)[C@H](CCC(=O)O)NC(=O)[C@H](C)NC(=O)[C@H](CC(C)C)NC(=O)[C@H](CCCNC(=N)N)NC(=O)[C@H](CCC(N)=O)NC(=O)[C@@H](NC(=O)[C@H](C)NC(=O)[C@@H]1CSSC[C@H](NC(=O)[C@@H](N)CCCCNC(=O)CC[C@H](NC(=O)CC[C@H](NC(=O)CCCCCCCCCCCCCCCCCCC(=O)O)C(=O)O)C(=O)O)C(=O)N[C@@H](CC(N)=O)C(=O)N[C@@H]([C@@H](C)O)C(=O)N[C@@H](C)C(=O)N[C@@H]([C@@H](C)O)C(=O)N1)[C@@H](C)O)C(=O)N1CCC[C@H]1C(=O)N[C@@H](CO)C(=O)N[C@@H](CO)C(=O)N[C@H](C(=O)N[C@@H](CC(N)=O)C(=O)N[C@H](C(=O)NCC(=O)N[C@@H](Cc1c[nH]cn1)C(=O)N[C@@H](CCC(=O)O)C(=O)N[C@H](C(=O)N[C@@H](Cc1ccc(O)cc1)C(N)=O)[C@@H](C)O)C(C)C)[C@@H](C)O
notes: as for B1
For the molecule B7, the IC50 was found to be 0.525 nM.
